Data published in patent US6017763.

Columns and labels:
[1] = molecular target: pig neutrophil Gβγ-activated PI3K A (p117/p101 heterodimer) (porcine)
[2] = molecular target: pig neutrophil Gβγ-activated PI3K B (p120/p101 heterodimer) (porcine)
[3] = molecular target: Sf9-derived p101/p120 heterodimer ((EE)-p101 with 6×HIS-p120), formed in vivo by co-infection or reconstituted in vitro (porcine)
[4] = molecular target: porcine 6×HIS-tagged p120, Sf9-derived (pAcHLT p120), uncleaved (porcine)
[5] = molecular target: porcine twice-cut p120 (thrombin cleaved, lacking approximately 40 amino-terminal residues) (porcine)

Substance: Gβγ subunits (purified G protein βγ subunits)
- PI3K (lipid kinase) activity [1]: > 100 ×
- PI3K (lipid kinase) activity [2]: > 100 ×
- PI3K activity [3]: > 100 ×
- PI3K activity of free p120 [4]: 1.7 fold
- PI3K activity of thrombin cleaved p120 [5]: 2.5 fold
